# Positions count from the first letter of the chain named.
# T1: monkey Fc-PD-1 protein (monkey, UniProt Q15116 25-170 (human entry))
# T1 construct: not shown: Fc part not described
# T1 chain: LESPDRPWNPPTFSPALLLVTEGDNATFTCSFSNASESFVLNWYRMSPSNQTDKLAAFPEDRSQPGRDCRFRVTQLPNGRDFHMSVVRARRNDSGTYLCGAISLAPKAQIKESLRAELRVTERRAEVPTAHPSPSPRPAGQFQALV
# T2: PD-1 M14
# T2 PD-1 mutant: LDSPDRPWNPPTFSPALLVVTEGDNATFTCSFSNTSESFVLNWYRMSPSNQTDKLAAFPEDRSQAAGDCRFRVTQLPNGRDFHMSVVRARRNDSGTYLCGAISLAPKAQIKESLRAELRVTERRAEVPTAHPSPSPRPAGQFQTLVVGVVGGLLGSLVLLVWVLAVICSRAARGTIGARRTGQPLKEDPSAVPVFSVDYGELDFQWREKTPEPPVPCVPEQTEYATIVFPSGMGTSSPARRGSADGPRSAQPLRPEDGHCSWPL
# B1: 137F2 (antibody, V domains shown)
# VH: QVQLQQPGAELVRPGTSVKMSCKAAGYTFTNYWIGWIKQRPGHGLEWIGDIYPGGGYTNYNEKFKGKATLTADTSSSTAYMQVSSLTSEDTGIYYCARGYDFVLDRWGQGTSVTVSS
# VL: DIVMSQSPSSLAVSTGEKVTMTCKSSQSLFNSETQKNYLAWYQQKPGQPPKLLIFWASTRESGVPDRFLGSGSGTDFTLTISSVQAEDLAVYYCKQSYTLRTFGGGTKLEIK
# notes: also called mouse 137F2A11
# B2: A35796 (Fab, V domains shown)
# VH: QMQLVQSGPEVKKPGTSVKVSCKASGFTFTNYWIGWVRQAPGQALEWMGDIYPGGGYTNYNEKFKGRVTITADKSTSTAYMELSSLRSEDTAVYYCARGYDFVLDRWGQGTTVTVSS
# VL: DVVMTQSPAFLSVTPGEKVTITCKSSQSLFNSETQKNYLAWYQQKPGQPPKLLIYWASTRESGVPSRFSGSGSGTDFTLTISSLQPEDFATYYCKQSYTLRTFGGGTKLEIK
# notes: humanized Fab clone of 137F2; also called humanized antibody A35796
# B3: A35797 (Fab, V domains shown)
# VH: EVQLVQSGAEVKKHGESLKISCKGSGYSFTNYWIGWVRQATGQGLEWMGDIYPGGGYTNYNEKFKGRVTITADKSTSTAYMELSSLRSEDTAVYYCARGYDFVLDRWGQGTTVTVSS
# VL: B2 VL with V2I, V3Q, A9S, F10S, V13A, T14S, P15V, E17D, K18R
# notes: humanized Fab clone of 137F2; also called humanized antibody A35797
# B4: A35805 (Fab, V domains shown)
# VH: B2 VH with M2V, P9S, V11L, T16A, F27Y, Q43K, A44G
# VL: B2 VL with L79F, Q85E, P86A, F89A
# notes: humanized Fab clone of 137F2; also called humanized antibody A35805
# B5: A35818 (Fab, V domains shown)
# VH: B2 VH
# VL: B2 VL with P49A, K51R, L79F, Q85E, P86A, F89A
# notes: humanized Fab clone of 137F2; also called humanized antibody A35818
# B6: A35793 (Fab, V domains shown)
# VH: B2 VH
# VL: B2 VL with L79F, Q85E, P86A, F89A
# notes: humanized Fab clone of 137F2; also called humanized antibody A35793
# B7: A35799 (Fab, V domains shown)
# VH: B2 VH with P9A, P14T, T16S, F27Y, A40M, Q43K, A44G
# VL: B2 VL
# notes: humanized Fab clone of 137F2; also called humanized antibody A35799
# B8: A35795 (Fab, V domains shown)
# VH: B2 VH with M2V, P9A, T16A, F27Y, A44G
# VL: B2 VL with P49A, K51R
# notes: humanized Fab clone of 137F2; also called humanized antibody A35795
# B9: A35775 (Fab, V domains shown)
# VH: EVQLVQSGAEVKKPGESLKISCKGSGYSFTNFYIHWVRQAPGQRLEWMGSIYPNYGDTAYNQKFKDRFVFSLDTSVSTAYLQISSLKAEDTAVYYCARGYSYAMDYWGQGTTVTVSS
# VL: DIQMTQSPSSVSASVGDRVTITCSASQGISGDLNWYQQKPGQAPRLLIYHTSSLHSGVPSRFSGSGSGTDFTLTISSLQPEDFATYYCQYYSKDLLTFGGGTKLEIK
# notes: humanized Fab clone of 135C12; also called humanized antibody A35775
# B10: A35774 (Fab, V domains shown)
# VH: B9 VH
# VL: B9 VL with Q42K, R45K
# notes: humanized Fab clone of 135C12; also called humanized antibody A35774
# B11: A35789 (Fab, V domains shown)
# VH: EVQLVQSGAEVKKPGESLKISCKGSGYSFTNFYIHWVRQMPGKGLEWMGSIYPNYGDTAYNQKFKDRVTITADKSTSTAYMELSSLRSEDTAVYYCARGYSYAMDYWGQGTTVTVSS
# VL: B9 VL with V58I, S60A, S77R, Q79E, T85V
# notes: humanized Fab clone of 135C12; also called humanized antibody A35789
# B12: A36443 (Fab, V domains shown)
# VH: B11 VH with E16A, S17T, L18V, G24V, S28T, M40A, P41R, K43Q, G44R, M48I
# VL: B9 VL with D70E, S77R, Q79E, T85V
# notes: humanized Fab clone of 135C12; also called humanized antibody A36443
# B13: A35777 (Fab, V domains shown)
# VH: B11 VH with E16A, S17T, L18V, G24V, S28T, M40A
# VL: B9 VL with S10T, V11L
# notes: humanized Fab clone of 135C12; also called humanized antibody A35777
# B14: A36448 (Fab, V domains shown)
# VH: B9 VH with A40M, Q43K, R44G
# VL: B9 VL with S10T, V11L, Q42K, A43T, R45K
# notes: humanized Fab clone of 135C12; also called humanized antibody A36448
# B15: A36437 (Fab, V domains shown)
# VH: B9 VH with A40M, Q43K, R44G
# VL: B9 VL with S10T, V11L, V58I, S60A, T85V
# notes: humanized Fab clone of 135C12; also called humanized antibody A36437
# B16: A35783 (Fab, V domains shown)
# VH: B9 VH with P41R, M48I
# VL: B9 VL with V11L, Q42K, A43T, R45K
# notes: humanized Fab clone of 135C12; also called humanized antibody A35783
# Biological target: T1, monkey Fc-PD-1 protein
# Assay: Biacore, monkey Fc-PD-1
Kd,koff,kon,Binder
2.22 nM,0.000305 s⁻¹,138000 M⁻¹ s⁻¹,B1

# Biological target: T3, recombinant human Fc-PD-1 protein (human, UniProt Q15116 25-170)
# T3 construct: may be the same protein as the PD-1 Fc fusion of the Luminex assays; also called recombinant human PD-1 in an Fc fusion construct; not shown: Fc part not described
# Assay: Biacore, Fab, human Fc-PD-1
# T3 sequence (Q15116 25-170): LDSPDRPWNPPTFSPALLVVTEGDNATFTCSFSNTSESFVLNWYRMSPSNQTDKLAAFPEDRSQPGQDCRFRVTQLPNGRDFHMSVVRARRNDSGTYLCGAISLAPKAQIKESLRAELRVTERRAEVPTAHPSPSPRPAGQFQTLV
Kd,koff,kon,Binder
1.18 nM,0.000123 s⁻¹,104000 M⁻¹ s⁻¹,B2
0.802 nM,8.02e-05 s⁻¹,100000 M⁻¹ s⁻¹,B3
0.937 nM,8.78e-05 s⁻¹,93700 M⁻¹ s⁻¹,B4
1.06 nM,0.000104 s⁻¹,98800 M⁻¹ s⁻¹,B5
0.912 nM,9.49e-05 s⁻¹,104000 M⁻¹ s⁻¹,B6
0.734 nM,7.43e-05 s⁻¹,101000 M⁻¹ s⁻¹,B7
0.797 nM,8.24e-05 s⁻¹,103000 M⁻¹ s⁻¹,B8

# Biological target: T3, recombinant human Fc-PD-1 protein
# Assay: Biacore, Fab, human Fc-PD-1
# Remark: another data set of the same source
Kd,koff,kon,Binder
2.54 nM,0.000203 s⁻¹,80200 M⁻¹ s⁻¹,B9
2.61 nM,0.000211 s⁻¹,80900 M⁻¹ s⁻¹,B10
4.17 nM,0.000293 s⁻¹,70100 M⁻¹ s⁻¹,B11
3.02 nM,0.000215 s⁻¹,71200 M⁻¹ s⁻¹,B12
5.13 nM,0.000352 s⁻¹,68600 M⁻¹ s⁻¹,B13
4.31 nM,0.000386 s⁻¹,89600 M⁻¹ s⁻¹,B14
4.46 nM,0.000317 s⁻¹,71000 M⁻¹ s⁻¹,B15
2.55 nM,0.000196 s⁻¹,76800 M⁻¹ s⁻¹,B16

# Biological target: T1, monkey Fc-PD-1 protein
# Assay: Biacore, Fab, monkey Fc-PD-1
Kd,koff,kon,Binder
1.03 nM,9.81e-05 s⁻¹,95300 M⁻¹ s⁻¹,B2
1.13 nM,0.000106 s⁻¹,93700 M⁻¹ s⁻¹,B3
1.08 nM,9.49e-05 s⁻¹,88200 M⁻¹ s⁻¹,B4
1.27 nM,0.000116 s⁻¹,91400 M⁻¹ s⁻¹,B5
1.13 nM,0.000105 s⁻¹,93200 M⁻¹ s⁻¹,B6
1.88 nM,0.000169 s⁻¹,89700 M⁻¹ s⁻¹,B7
1.64 nM,0.000152 s⁻¹,92500 M⁻¹ s⁻¹,B8

# Biological target: T1, monkey Fc-PD-1 protein
# Assay: Biacore, Fab, monkey Fc-PD-1
# Remark: another data set of the same source
Kd,koff,kon,Binder
5.73 nM,0.000347 s⁻¹,60500 M⁻¹ s⁻¹,B9
2.79 nM,0.000194 s⁻¹,69300 M⁻¹ s⁻¹,B10
6.19 nM,0.000413 s⁻¹,66700 M⁻¹ s⁻¹,B11
6.16 nM,0.000585 s⁻¹,94900 M⁻¹ s⁻¹,B12
5 nM,0.000575 s⁻¹,115000 M⁻¹ s⁻¹,B13
6.07 nM,0.000368 s⁻¹,60700 M⁻¹ s⁻¹,B15
1.9 nM,0.0008 s⁻¹,421000 M⁻¹ s⁻¹,B16

# Biological target: T2, PD-1 M14
# Assay: flow cytometry, HeLa cells transiently transfected with PD-1 M14, PE-labeled anti-mouse IgG secondary Ab
row,binding result,Binder
1,binds,B1

# — patent US20220259315A1 (MABQUEST, published 2022)
